The values that follow come from publication PMC8993412 (Journal of Molecular Biology, 2022).

Experiment [1] concerns the target Nsp1 in SARS-CoV-2-infected VeroE6 cells (SARS-CoV-2 USA-WA1/2020, UniProt P0DTD1). The experiment is described as follows: immunostaining of cells or tissue.
The target of experiment [2] is SARS-CoV-2 Nsp1, full-length protein (recombinant) (SARS-CoV-2, reference, UniProt P0DTD1). The experiment is described as follows: ELISA.
In experiment [3] the target is Nsp12 in SARS-CoV-2-infected VeroE6 cells (SARS-CoV-2 USA-WA1/2020, UniProt P0DTD1). Kind of experiment: immunostaining of cells or tissue.
The target of experiment [4] is SARS-CoV-2 Nsp12 (recombinant) (SARS-CoV-2, reference, UniProt P0DTD1). Kind of experiment: western blot.

B1: IgG 15497 (anti-Nsp1) (antibody, V domains shown)
VH: EVQLVESGGGLVQPGGSLRLSCAASGFNFSSSSIHWVRQAPGKGLEWVASISSSYGYTYYADSVKGRFTISADTSKNTAYLQMNSLRAEDTAVYYCARWAAMDYWGQGTLVTVSS
VL: DIQMTQSPSSLSASVGDRVTITCRASQSVSSAVAWYQQKPGKAPKLLIYSASSLYSGVPSRFSGSRSGTDFTLTISSLQPEDFATYYCQQYYSLITFGQGTKVEIK
Regarding B1, in experiment [1], the binding result is reported as “binds”.

B2: Fab 15497 (Fab-phage clone) (Fab, V domains shown)
VH: B1 VH
VL: B1 VL
B2: the binding result in experiment [2] is “binds”.

B3: IgG 15884 (anti-Nsp12) (antibody, V domains shown)
VH: EVQLVESGGGLVQPGGSLRLSCAASGFNIYYYSMHWVRQAPGKGLEWVASIYSYYGYTSYADSVKGRFTISADTSKNTAYLQMNSLRAEDTAVYYCARHPAYGGMDYWGQGTLVTVSS
VL: DIQMTQSPSSLSASVGDRVTITCRASQSVSSAVAWYQQKPGKAPKLLIYSASSLYSGVPSRFSGSRSGTDFTLTISSLQPEDFATYYCQQSHWHPITFGQGTKVEIK
B3: the binding result in experiment [3] and in experiment [4] was “binds” each time.

B4: Fab 15498 (Fab-phage clone) (Fab, V domains shown)
VH: EVQLVESGGGLVQPGGSLRLSCAASGFNISSSSMHWVRQAPGKGLEWVAAVASFYGATYYADSVKGRFTISADTSKNTAYLQMNSLRAEDTAVYYCARAYHAGLDYWGQGTLVTVSS
VL: DIQMTQSPSSLSASVGDRVTITCRASQSVSSAVAWYQQKPGKAPKLLIYSASSLYSGVPSRFSGSRSGTDFTLTISSLQPEDFATYYCQQWYYYSAAVTFGQGTKVEIK
B4: the binding result in experiment [2] was “binds”.
